Patent publication US5663314

What was measured:
ETE peptide = target: T1, ETE peptide
T1 sequence (peptide): RRREEETEEE

Syntide-2 = target: T2, Syntide-2
T2 sequence (peptide): PLARTLSVAGLPGKK

RR-SRC peptide = target: T3, RR-SRC peptide
T3 sequence (peptide): RRLIEDAEYAARG

[1] = target: bovine myelin basic protein (bovine) (UniProt P02687)
[2] = target: Recombinant ERK2 expressed in E. coli (Rattus norvegicus (Rat)) (UniProt P63086)
TEY peptide = target: T4, TEY peptide
T4 sequence (peptide): PEHDHTGFLTEYVATRWYR

Band-3 peptide = target: T5, Band-3 peptide
T5 sequence (peptide): MEELQDDYEDDMEERR

[3] = target: Heat-denatured ERK2 (Rattus norvegicus (Rat)) (UniProt P63086)
S6 peptide = target: T6, S6 peptide
T6 sequence (peptide): RRLSSLRA

Sequence of bovine myelin basic protein (bovine) (P02687 whole entry): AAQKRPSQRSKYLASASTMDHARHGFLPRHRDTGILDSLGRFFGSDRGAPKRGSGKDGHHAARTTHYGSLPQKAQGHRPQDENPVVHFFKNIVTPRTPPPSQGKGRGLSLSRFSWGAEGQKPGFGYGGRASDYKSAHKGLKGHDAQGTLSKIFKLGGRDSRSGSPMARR

Phosphorylation (Denatured enolase): < 0.005 nmol/min/mg
Phosphorylation (Casein): < 0.005 nmol/min/mg
Phosphorylation (poly (Glu^80 -Tyr^20)): < 0.005 nmol/min/mg
Phosphorylation (Kemptide): < 0.005 nmol/min/mg
Phosphorylation (ETE peptide): < 0.005 nmol/min/mg
Phosphorylation (Protamine): 0.03 nmol/min/mg
Phosphorylation (Syntide-2): 0.04 nmol/min/mg
Phosphorylation (Histones): 0.04 nmol/min/mg
Phosphorylation (RR-SRC peptide): 0.005 nmol/min/mg
Phosphorylation [1]: 0.12 nmol/min/mg
Phosphorylation [2]: 60 nmol/min/mg
Phosphorylation (TEY peptide): 0.005 nmol/min/mg
Phosphorylation (Band-3 peptide): < 0.005 nmol/min/mg
Phosphorylation [3]: < 0.005 nmol/min/mg
Phosphorylation (S6 peptide): 0.07 nmol/min/mg
Phosphorylation (Raf-1): < 0.01 nmol/min/mg
Phosphorylation (Ribosomal S6 protein): < 0.005 nmol/min/mg
B1: MAPK activator 2 (MAPKK1b), 45 kDa polypeptide purified from EGF-stimulated A431 cells (enzyme)
chain: MPKKKPTPIQLNPAPDGSAVNGTSSAETNLEALQKKLEELELDEQQRKRLEAFLTQKQKVGELKDDDFEKISELGAGNGGVVFKVSHKPSGLVMARKLIHLEIKPAIRNQIIRELQVLHECNSPYIVGFYGAFYSDGEISICMEHMVIKGLTYLREKHKIMHRDVKPSNILVNSRGEIKLCDFGVSGQLIDSMANSFVGTRSYMSPERLQGTHYSVQSDIWSMGLSLVEMAVGRYPIPPPDAKELELMFGCQVEGDAAETPPRPRTTPGRPLSSYGMDSRPPMAIFQLLDYIVNEPPPKLPSGVFSLEFQDFVNKCLIKNPAERADLKQLMVHAFIKRSDAEEVDFAGWLCSTIGLNQPSTPTHAAGV
